From the supplement of paper PMC9170038

Tested on: MS2 coat protein
Test: apparent KD of MS2 coat protein; designed switch direction (-1 OFF switch, 1 ON switch): -1; higher = weaker reporter binding
Summary of the method: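 For each design, the apparent KD is the median over clusters of curves fitted to normalised cluster fluorescence. Clusters held RNA switches with common flanks, transcribed on Illumina chips by stalled E. coli RNA polymerase. These were titrated with SNAP-549-labelled MS2 coat protein, doubling from 0.7 or 1.5 nM to 3 µM, without input, with 200 uM small-molecule ligand, or with an oligonucleotide input.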

[1] = input ligand: microRNA oligo, concentration not stated
[2] = Eterna round: R95, input ligand: FMN 200 uM
[3] = Eterna round: R95, input ligand: microRNA oligo, concentration not stated
[4] = Eterna round: R95, input ligand: none

Sequence | apparent KD of MS2 coat protein (input ligand: FMN 200 uM) [nM] | apparent KD of MS2 coat protein [1] [nM] | apparent KD of MS2 coat protein (input ligand: none) [nM] | apparent KD of MS2 coat protein [2] [nM] | apparent KD of MS2 coat protein [3] [nM] | apparent KD of MS2 coat protein [4] [nM]
CACCGUAACAGAGGAUAUGAUACAUGAGGAUCACCCAUGUAAUAAAUGAGAAUUUCGAAUGUACCUCAGAAGGCUGAAACCGGC [Ostricism 81 - Jieux - Exclusion NG 2] (Eterna round: R96, puzzle: Exclusion NG 2) | 115 | 38.5 | 48 | – | – | –
CACCGUAACUGAGGAUAUCAAACAUGAGGAUCACCCAUGUAAUAAAUGAGAAUUUCGAAUGUACCUGAGAAGGCAGAAACCGGC [Ostricism 84 - Jieux - Exclusion NG 2] (Eterna round: R96, puzzle: Exclusion NG 2) | – | 25.1 | – | – | – | –
CACCGUUAAGGAGGAUAUCGUACAUGAGGAUCACCCAUGUAAUAAAUGAGAAUUUCGGAUGUAUGCGAGAAGGCCUAAAUCGGC [Ostracism 44 - Jieux - Exclusion NG 2] (Eterna round: R96, puzzle: Exclusion NG 2) | – | 34.7 | – | – | – | –
CACCGUUACACAGGAUAUCUUACAUGAGGAUCACCCAUGUAAUAAAUGAGAAUUUCGAAUGUAUUAGAGAAGGGUGGAAUCGGC [Ostracism 67 - Jieux - Exclusion NG 2] (Eterna round: R96, puzzle: Exclusion NG 2) | – | 29.8 | – | – | – | –
CACCGUUACAGAGGAUAUGUCACAUGAGGAUCACCCAUGUAAUAAAUGAGAAUUUCGAAUGUAACACAGAAGGCUGGAAUCGGC [Ostricism 76 - Jieux - Exclusion NG 2] (Eterna round: R96, puzzle: Exclusion NG 2) | 37.1 | 18.1 | 26.5 | – | – | –
CACCGUUACUGAGGAUAUGGUACAUGAGGAUCACCCAUGUAAUAAAUGAGAAUUUCGGAUGUAUUCCAGAAGGCAGAAAUCGGC [Ostricism 63 - Jieux - Exclusion NG 2] (Eterna round: R96, puzzle: Exclusion NG 2) | 65.2 | 40.5 | 60.3 | – | – | –
CACCGUUAGAGAGGAUAUCGUACAUGAGGAUCACCCAUGUAAUAAAUGAGAAUUUCGGAUGUAUGCGAGAAGGCUCAAAUCGGC [Ostracism 39 - Jieux - Exclusion NG 2] (Eterna round: R96, puzzle: Exclusion NG 2) | 42.1 | 42.5 | 60 | – | – | –
CACCGUUAGUGAGGAUAUCUUACAUGAGGAUCACCCAUGUAAUAAAUGAGAAUUUCGGAUGUAUGAGAGAAGGCACAAAUCGGC [Ostricism 53 - Jieux - Exclusion NG 2] (Eterna round: R96, puzzle: Exclusion NG 2) | 21.2 | 18.5 | 22.7 | – | – | –
CACCGUUAUGGAGGAUAUCGUACAUGAGGAUCACCCAUGUAAUAAAUGAGAAUUUCGGAUGUAUGCGAGAAGGCCAAAAUCGGC [Ostracism 43 - Jieux - Exclusion NG 2] (Eterna round: R96, puzzle: Exclusion NG 2) | 46.6 | 26.9 | 43.5 | – | – | –
CACCUGAAAGCAGGAUAUCUUACAUGAGGAUCACCCAUGUAAUAAAUGAGAAUUUCGAAUGUAAUAGAGAAGGGCUGAAAAGGC [Ostracism 86 - Jieux - Exclusion NG 2] (Eterna round: R96, puzzle: Exclusion NG 2) | 47 | 37.7 | 40.3 | – | – | –
CACCUGAAGAGAGGAUAUCAUACAUGAGGAUCACCCAUGUAAUAAAUGAGAAUUUCGAAUGUAAUUGAGAAGGCUCGAUAAGGC [Ostricism 92 - Jieux - Exclusion NG 2] (Eterna round: R96, puzzle: Exclusion NG 2) | 109 | 54.9 | 59 | – | – | –
CACGAACAUGAGGAUCACCCAUGUAAGGAUAUGGCCAACGACUUAAACUAAAGGUUGGCCAGAAGGUGCGGGUG [Eternabot (L2) Solution 61] (Eterna round: R97, puzzle: Exclusion 1) | 52.5 | – | 286 | – | – | –
CACGGGUAAGGAUAUACAAGUGAGAAAGGUAUGUGCAAAUAACAUGAGGAUCACCCAUGUAGAAGGUACGCCGG [Cearxeen] (puzzle: Exclusion 2) | – | – | – | 27.1 | 16.9 | 14.9
CACGUGUAAGGAUAUGACAAUGGUAUCUUCGGAUACCAUUGUCAGAAGGUACAUGAGGAUCACCCAUGUAACAC [Ex4-3: 15] (puzzle: Exclusion 4) | – | – | – | – | 17.2 | –
CACUCACAUGAGGAUCACCCAUGUCAGGAUAUCUCAGUGCAUCCACACGGACGCAUCAAGAGAAGGGACAAAAC [Vinxlusion 1 - Jieux - Exclusion 1] (Eterna round: R97, puzzle: Exclusion 1) | 40.2 | – | 36.6 | – | – | –
CACUUACAUGAGGAUCACCCAUGUGAGGAUAUCGUGACCAGACGAGAAGUCUAUGUCACGAGAAGGCACGUGGG [Exclusion 1 (Mod 3.1 solution 97 by Eternabot)] (Eterna round: R97, puzzle: Exclusion 1) | 20.8 | – | 811 | – | – | –
CAGAAUUGAGGAUAUGAUCAAUUUAACAUGAGGAUCACCCAUGUAUGGGAAUGAUUCUGAUCAGAAGGCGAUUCUA [Exclusion 5: 1:b] (puzzle: Exclusion 5) | – | – | – | 289 | 408 | 79
CAGAGCAGACGGAGAUCCAACAUGAGGAUCACCCAUGUCUCAAAAGCUUUUUGCUUGUCUUAUCCUCCUCUGUUCAC [Esquitian 2] (Eterna round: R97, puzzle: Sensor, turn-off variant 1) | 18.3 | – | 17.4 | – | – | –
CAGAGCAGAGGAUAUACAUGAGGAUCACCCAUGUGAUCAUGCUACGGGACGUUACAUUGUAGAAGGCUGCUUUC [Eternabot (L2) Solution 58] (Eterna round: R97, puzzle: Exclusion 3) | 283 | – | 31.1 | – | – | –
CAGCACUCAGGAUAUACAUGAGGAUCACCCAUGUGUGAACAAGUGAGUGAUUUCCCAUGUAGAAGGGAGAGAUU [Exclusion 3 S1] (Eterna round: R97, puzzle: Exclusion 3) | 183 | – | 98.2 | – | – | –
CAGCGGUGAGGAUAUACGUAGGUACAGAUCUGUGUGUUCCUACAUGAGGAUCACCCAUGUAGAAGGCAUGGCUG [LRO-Excl2-11] (puzzle: Exclusion 2) | – | – | – | – | 37.1 | –
CAGCGGUGAGGAUAUUCAAGGUGGGACAUGAGGAUCACCCAUGUACAUAGCUGUACGACCGGAGAAGGCGUGGCAU [Eternabot (L1) Solution 67] (Eterna round: R97, puzzle: Exclusion 5) | 86.5 | – | 76.3 | – | – | –
